Assay results as given in paper doi:10.1101/2024.11.05.621662 (bioRxiv, 2024).

Target: the molecule itself
Test: SEC-MALS

B1: TFG PB1 domain (amino acids 1-96), wild type (domain or fragment, human, UniProt Q92734 1-96, looked up)
chain: MNGQLDLSGKLIIKAQLGEDIRRIPIHNEDITYDELVLMMQRVFRGKLLSNDEVTIKYKDEDGDLITIFDSSDLSFAIQCSRILKLTLFVNGQPRP
stoichiometry N: 8
